The values below come from PMC2733758 (The Journal of Cell Biology, 2009).

For the assay, the target named is T1, GST∷CED-9(R211E, N212G) (C. elegans, UniProt P41958 1-280, R211E | N212G).
T1 sequence (looked up): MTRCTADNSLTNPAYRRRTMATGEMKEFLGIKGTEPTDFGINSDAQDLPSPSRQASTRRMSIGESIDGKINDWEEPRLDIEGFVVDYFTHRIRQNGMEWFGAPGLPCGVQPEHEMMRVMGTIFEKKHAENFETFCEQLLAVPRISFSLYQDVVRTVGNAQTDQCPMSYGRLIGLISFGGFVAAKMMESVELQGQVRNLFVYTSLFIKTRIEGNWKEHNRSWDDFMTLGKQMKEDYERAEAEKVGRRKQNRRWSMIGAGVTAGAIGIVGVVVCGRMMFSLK
The experiment in a line: pull-down.

B1: in vitro-translated, [35S]methionine-labeled FZO-1 protein (natural protein, C. elegans, UniProt Q23424 1-774, looked up)
chain: MSGTASLVHTLPASGDSNHRGLHSLKNSRRAADNEPLLRFREAKKVLGDVYGELKDNVAELEGVYKDIKENDFVSSEQREEIEAIGDSIKTIMDTFQRDNMKVVFFGRTSNGKSTTINAMLHEKVLPQGMGHTTCCFLQVEGSEGEVGHLQLDDNPQKIDMKMLGKIGHALSDENSDLPAMGQDSLLKVFHPKKSESGECRLLQNDVVILDSPGVDLSPEFDSWIDKHCLDADVFVLVSNAESTLTQAEKNFFLRVAKKLSKPNVFILNNRWDASAAETENIEDVKKQHLTRFRQFLVDELEVCSEREVNDRIFFVSSREVLESRLKARGLVQKAYQAEGHGTRALEFQNFERHFEHCISRSAIHTKFEAHNRRAHEMIGKMRLNLNSVLTSAAEQRSKLQNNLNESTRTFNECRVNFTQFEKAYREQTEQLRAEVHLKVSADFFEEIARLDAIIDRFEQPFDGSSSGMTKYKEDLAIFVDKCLSSDLEARCTGGLMSRIWNLENDMFQYVTKILAEPYQNKLEEVWRYRAPFKFSICVDVPALVNDFHEDLEFRFTFGLHAIIRRIIAYRSGQPVTAINTNLLTPLSLKQQSEKNSVRDAEASAASEEQAMMTQMVLTSAAFLANGSLGVLVVGGIVYKAVGWRVIAVGGAAYAGLYAWERMRWNSGAKEQHLKEQFRSHLAARMQQVSTAHTHHCETQAIREMDQVFDGLKATVGGVHREMKNDLDVQKTQIDAVDSTIRTLGTIKGKAVFLLRNLEQFASSYLRSDSPPTP
modifications: [35S]methionine-labeled
As to B1, the “fold lower affinity than wild-type CED-9” value amounted to 3 fold.
